We go through one substance from patent US20120004133A1.

This assay addresses Ang II type 1 receptor on rat vascular smooth muscle cells (rat) (UniProt P25095). Nature of the assay: cell-based or functional assay.
Sequence of UniProt P25095 (P25095 whole entry): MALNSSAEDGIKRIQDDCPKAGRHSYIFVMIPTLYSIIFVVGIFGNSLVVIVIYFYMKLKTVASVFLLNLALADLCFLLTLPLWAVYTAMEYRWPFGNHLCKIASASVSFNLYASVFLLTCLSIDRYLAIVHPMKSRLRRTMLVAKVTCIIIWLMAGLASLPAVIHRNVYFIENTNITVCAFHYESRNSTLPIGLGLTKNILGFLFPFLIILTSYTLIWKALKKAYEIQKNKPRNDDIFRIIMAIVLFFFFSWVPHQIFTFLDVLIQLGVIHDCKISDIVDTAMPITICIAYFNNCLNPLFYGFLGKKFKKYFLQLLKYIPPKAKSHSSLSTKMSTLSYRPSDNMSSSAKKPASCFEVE

“[Sar1, Gly8]-Ang II acetate hydrate (peptide)” registered an MFG-E8 protein level in old VSMC (Western blot) of 40%.
